Experiment: yeast display, Sf9 membrane polyspecificity reagent, FACS + sequencing; frameworks hold sequencing errors
In short: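 A nanobody's polyreactivity label depends on the gate it was sorted from. Yeast display cells were stained with 10% biotinylated, detergent-solubilized Sf9 membrane reagent for 1 hour at 4 °C, enriched on streptavidin microbeads and sorted by FACS. The low and high (top ~1%) gates were set on anti-HA fluorescence for expression and streptavidin fluorescence for reagent binding.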

Sequence	polyreactivity (PSR sort gate)
QDQLVESGGGLVQAGGSLRLSCAASGFTFGENSMGWYRQAPGKERELVAANRYSGGSTYYADSVKGRFTISRDNAKNTVYLQMNSLKPEDTAVYYCNADTYALGPAVIPGDEYWGQGTQVTVSS	low polyreactivity
QDQLVESGGGLVQAGGSLRLSCAASGFTFTRNAMGWYRQAPGKEREFVAAISVGGGRTYYADSVKGRFTISRDNAKNTVYLQMNSLKPEDTAVYYCNAYQGWRYDYWGPGTQVTVSS	high polyreactivity
QDQLVESGGGLVQAGGSLRLSCAASGFTFYRYAMGWYRQAPGKERELVATIRNGGNTNYADSVKGRFTISRDNAKNTVYVQMNSLKPEDTAVYYCAKTVLAGMDWGQGTQVTVSS	high polyreactivity
QDQLVESGGGLVQAGGSLRLSCAASGFTIGYNVMGWYRQAPGKERELVATISWNGARTYYADSVKGRFTISRDNAKNTVYLQMNSLKPEETAVYYCAARRYYRGEYDYWGQGTQVTVSS	low polyreactivity
QDQLVESGGGLVQAGGSLRLSCAASGFTLATYAMGWYSPAPGKEREWVAAITRSGGSTDDADSVKGRFTISRDIAKNTVYVQMNSLKPEDTAVYYCNAREVRYEYNYWGHGTQVTVSS	low polyreactivity
QDQLVESGGGLVQAGGSLRLSCAASGGTFIYNTMGWYRQAPGKERELVAAINSGGSTTYADSVKGRFTISRDNAKNTVYLQMNSLKPEDTAVYYCAAVYVYLGVYARYPIWGYYYWGQGTQVTVSS	low polyreactivity
QDQLVESGGGLVQAGGSLRLSCAASGIIFQYYAMGWYRQAPGKERELVAAISWSGGSTYYADSVKGRFTISRDNAKNTVYLQMNSLKPEDTAVYYCAARSRSYWPYEGDYWGQGTQVTVSS	low polyreactivity
QDQLVESGGGLVQAGGSLRLSCAASGIILDHYSMGWYRQAPGKERELVAAISSGTRTNYADSVKGRFTISRDNAKHTVSLQMNSLKPEDTAVYYCAATIYRRYRSKYSITSYWGQGTQVTVSS	high polyreactivity
QDQLVESGGGLVQAGGSLRLSCAASGITFVYYAMGWYRQAPGKERELVAAITGSGDSTYYADSVKGRFTISRDNAKNTVYLQMNSLKPEDTAVYYCAAEAWWYGGFGYWGQGTQVTVSS	high polyreactivity
QDQLVESGGGLVQAGGSLRLSCAASGITFWYYAMGWYRQAPGKERELVAAITRSGRTNYADSVKGRFTISRDYAKNTVYLQMNILKPEDTAVYYCAVDLYSFSPRYYYWGQGTQVTVSS	low polyreactivity
QDQLVESGGGLVQAGGSLRLSCAASGLIFSYYAMGWYRQAPGKERELVAAIDWISGSKYYADSVKGLFTISRDNAKNTVYLQMNSLKPEDTAVYYCAAYGSFWYARFGYCGQGTQVTVSS	low polyreactivity
QDQLVESGGGLVQAGGSLRLSCAASGLIFYEYAMGWYRQAPGKERELVAAISRGGRTYYADSVKGRFTISRDNAKNTVYLQMNSLKPEDTAVYYCADRHWPEKYDYWGQGTHVTVSS	high polyreactivity
QDQLVESGGGLVQAGGSLRLSCAASGLTFDKYVMGWYRQAPGKERELVAAITKGGGSTYYADSVKGRFTISRDNAKNTVYLQMNSLKPEDTAVYYCAVTRPLRYWGQGTQVTVSS	high polyreactivity
QDQLVESGGGLVQAGGSLRLSCAASGLTFDRYTMGWYRQAPGKERELVAAITRGGGNTYYADSVKGRFTISRDNAKNTVYLQMNSLKPEDTAVYYCAANRRDGYDYWGQGTQVTVSS	low polyreactivity
QDQLVESGGGLVQAGGSLRLSCAASGLTFRKNAMGWSRQAPGKERELVAAISTGGRTYYADSVKGRFTISRDNAKNTVYLQMNSLKPEDTAVYYCNTVYVKSGLDYWGQGTQVTVSS	high polyreactivity
QDQLVESGGGLVQAGGSLRLSCAASGNIIVEKAMGWYRQAPGTERELVAVSTSGTSTYADSVKGRFTISRDNAKNTVYLQMYSLKPEDTAVYYCNKRQVFVSTGEYEFDYWGQGTQVTVSS	low polyreactivity
QDQLVESGGGLVQAGGSLRLSCAASGNIYPYAMGWYRQAPGKEREFVAAIRYSGGITYYADSVKGRFTISRDNAKNTVYLQMNSLKPEDTAVYYCAAYGWGNRWYSRFDYWGQGTQVTVSS	high polyreactivity
QDQLVESGGGLVQAGGSLRLSCAASGRIFDTYAMGWYRQAPGKERELDAAITRRGGSTYYADSVKGRFTISRDIAKNTVYLQMNSLKPEDTAVYYCAKSLVNRHYDYWGQGTQVTVSS	low polyreactivity
QDQLVESGGGLVQAGGSLRLSCAASGRIFGLYAMGCYRPAPGKERELVAAYADSVKGRFTISRDNAKNTVYLQMNSLKPEDTAVYYCAKGPLYAGYSIHLRDFNYWGQGTQVTVSS	low polyreactivity
QDQLVESGGGLVQAGGSLRLSCAASGRIFGTYAMGWYRQAPGKERELVATISYSSGRTYYADSVKGRFTISRDNAKNTVYLQMNSLKPEDTAVYYCAAVGTGSSLRYDYWGQGTQVTVSS	high polyreactivity
QDQLVESGGGLVQAGGSLRLSCAASGRIFSVNAMGWYRQAPGKERELVAAISRRGTSTFYADSVKGRFTISRDNAKNTVYLQMNSLKPEDTAVYYCAADFYPYQYKFDYWGQGTQVTVSS	high polyreactivity
QDQLVESGGGLVQAGGSLRLSCAASGRLIPSYVMGGYRPAQGKETEFVAGIRRGGGSTYYADSVKGRFTISRDNAKNTVYLQMNSLKPEDTAVYYSAAVKYSRPGVYHGHDSWRQGTQVTVSS	high polyreactivity

Sequence	polyreactivity (PSR sort gate)
QDQLVESGGGLVQAGGSLRLSCAASGRTFAYKVMGWYRQAPGNERELVAANSRGGGRTYYADSVKGRFTISRDNAKNTVYLQMNSLKPEDTAVYYCNAASSGLSGRLTSIINDYWGQGTQVTVSS	high polyreactivity
QDQLVESGGGLVQAGGSLRLSCAASGRTFDNYAMGWYRQAPGKERELVARITDTGGSTYYADSVKGRFTISRDNAKNTVYLQMNSLKPEDTAVYYCAADSYPFAWYWLYYYWGQGTQVTVSS	low polyreactivity
QDQLVESGGGLVQAGGSLRLSCAASGRTFGTYAMGWYRQAPGKERELVAAISSSGGRTYYADSVKGRFTISRDNAKNTVYVLMHSLKPEVTAVYYFAKSRYATQTDYNYWGQGTQVTVSS	high polyreactivity
QDQLVESGGGLVQAGGSLRLSCAASGRTFKINAMGWYRHAPGTERELVAAITYSGCTTYYADSVKGRFTISRDNAKNTVYLQMNSLKPEDTAVYYCATPSRKSGVGYPSYNYWGQGTQVTVSS	high polyreactivity
QDQLVESGGGLVQAGGSLRLSCAASGRTFLRNAMGWYRQAPGKERELVAAISRSGGSTYYADSVKGRVTISRDNAKNTVYLQMNSLKPEDTAVYYCAADDYGGYYYWGQGTQVTVSS	high polyreactivity
QDQLVESGGGLVQAGGSLRLSCAASGRTFNYNTMGWYIQAPGKERELVAAINKGGTRTYYADSVKGRFTISRDNAKNTVYLEMNSLKPEDTAVYYCAARLYSYDYWGQGTQVTVSS	high polyreactivity
QDQLVESGGGLVQAGGSLRLSCAASGRTFNYYGMGWYRQAPGKERELVAAISRGGTTNYADSVKGRFTISRDNAKNTVYLQMNSLKPEDTAVYYCAKGRSHWHSYQYVRPNYDYLGQGTQVTVSS	high polyreactivity
QDQLVESGGGLVQAGGSLRLSCAASGRTFPRNGMGWYRQAPGKERELVAAISWSGGRTYYADSVKGRFTISRDNAKNTVYLQMNSLKPEDTAVYYCNALYFRKGGYWGQGTQVTVSS	high polyreactivity
QDQLVESGGGLVQAGGSLRLSCAASGRTFTFNTMGWYRQAPGKERELVAAIVGDGTTNYADSVKGRFTISRDNAKNTVYLQMYSLKPEDTAVYYCAADFLYSFWYEPTFDYWGQGTQVTVSS	low polyreactivity
QDQLVESGGGLVQAGGSLRLSCAASGRTFTVYAMGWYRPAPGKEREMVAAISRSGGRTYYADSVKGRFTISRDNAMNTVYLQRNSLKPEDTAVYYCAADVPYRTNDFDYWGQGTQVTVSS	high polyreactivity
QDQLVESGGGLVQAGGSLRLSCAASGRTFVGYAMGWYRQAPGKERELVAAITSGGRTNYADSVKGRCTISRDNAKNTVYLQMTSLKPEDTAVYYCNARTRHRGQIALDYWGQGTQVTVSS	high polyreactivity
QDQLVESGGGLVQAGGSLRLSCAASGRTFVKYAMGWYRQAPGKERELVAAISRRGGSTYYADSVKGRFTISRDNAKNTVYLQMNSLKPEDTAVYYCAVSIGRYPYRYGYWGQGTQVTVSS	high polyreactivity
QDQLVESGGGLVQAGGSLRLSCAASGRTFYLYAMGWYSQAPGKEREFVAVINSSGGSTYYADSVKGRFTISRDNAKNTVYLQMNSLKPEDTAVYYCAAYPIPRGRDYWGPGTQVTVSS	low polyreactivity
QDQLVESGGGLVQAGGSLRLSCAASGRTYGSYAMGWYRQAPGQEMELVAAISRSDGSTYYADSVKGRFTISRDNAKNTVYLQMNSLKPEDTAVYYCAAKRWYVSYDYDYWGQGTQVTVSS	high polyreactivity
QDQLVESGGGLVQAGGSLRLSCAASGSIFLDNAMGWYRQAPGKERELVAAISKSGTRTYYADSVKGRFTISRDNAKNTVYLQMNSLKPEDTAVYYCNVVPKQAKSVELIGYYYWGQGTQVTVSS	high polyreactivity
QDQLVESGGGLVQAGGSLRLSCAASGSIFRYYAMGWYIQAPGKERELVAAITNSGGSTYYADSVKGRFTISRDNAKNTVYLQMNSLKPEDTAVYYCNARFRARPRMGYWGQGTQVTVSS	high polyreactivity
QDQLVESGGGLVQAGGSLRLSCAASGSIFTHNAMGWYRQAPGKERELVAAISSGGSTNYADSVKGRFTFSRDNAKNTVYLQMNSLKPEDTAVYYCAKSIDGWYWRRRRYDYWGQGTQVTVSS	low polyreactivity
QDQLVESGGGLVQAGGSLRLSCAASGSIFTKYAMGLYRQAPGKEREFVAAIDVNGGSTRYADSVKGRFTISRDYANNTVYLQMYSLKPEDTAVYYCAKDYTASYYPQGLYDYWGQGTQVTVSS	low polyreactivity
QDQLVESGGGLVQAGGSLRLSCAASGSIFVENDMGWYRQAPGKERELVAVITSGGSTYYADSVKGRFTISRDNAKNTVYLQMNSLKPEDTAVYYCNKDYAAIDRYDSWGQGTQVTVSS	low polyreactivity
QDQLVESGGGLVQAGGSLRLSCAASGSIFVSYTMGWYRQAPGKERELVAAITRSGGSTYYADSVKGRFTISRDNAKNTVYLQLNSLKPEDTAVYYCNATPANKYYRSTRGYAYNYWGQGTQVTVSS	low polyreactivity
QDQLVESGGGLVQAGGSLRLSCAASGSIFVYNTMGWYRQAPGKERELVAAISSSGGSTYYADSVKGRFTISRDNAKNTVYLQMNSLKPEDTAVYYCAAVNGYQYAPYYYNGYDFWGQGTQVTVSS	low polyreactivity
